Laboratory results from patent publication US20210388337A1, “PROTEIN-POLYMER CONJUGATES AND METHODS FOR THEIR PREPARATION” (Carnegie Mellon University, priority 2018, published 2021).

Target: Biotin-aprotinin (UniProt P00974)
Test: stopped-flow tryptophan fluorescence, avidin 0.5 µM, biotin-protein 5.0 µM

Sequence of Native avidin (P02701 25-152 limits assumed): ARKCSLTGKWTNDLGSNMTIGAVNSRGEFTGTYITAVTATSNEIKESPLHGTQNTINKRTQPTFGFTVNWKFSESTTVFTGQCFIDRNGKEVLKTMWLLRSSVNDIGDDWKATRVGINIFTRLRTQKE

- k (kobs, observed first-order rate constant): 73.5 s⁻¹
Substance: Native avidin (from UniProt P02701 25-152)
